# Assay results as given in US20140086829A1 (BIOREC S A, published 2014).
# T1: isoform 121 of human VEGF-A (Peprotech) (human, UniProt P15692-9 27-147)
# T1 construct: also called human VEGF121; VEGF 121
# T1 sequence (looked up): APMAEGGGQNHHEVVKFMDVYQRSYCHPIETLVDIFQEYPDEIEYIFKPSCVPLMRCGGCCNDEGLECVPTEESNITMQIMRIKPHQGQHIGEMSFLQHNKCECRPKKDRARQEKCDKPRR
# T2: mouse VEGF (Peprotech) (mouse, UniProt Q00731-2 27-190, limits assumed)
# T2 construct: also called Mouse VEGF-A
# T2 sequence (looked up): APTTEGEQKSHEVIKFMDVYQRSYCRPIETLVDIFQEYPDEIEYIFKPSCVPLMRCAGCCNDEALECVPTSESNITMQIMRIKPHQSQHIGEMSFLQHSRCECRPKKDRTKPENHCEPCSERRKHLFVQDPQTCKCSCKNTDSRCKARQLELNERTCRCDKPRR
# T3: human GST-VEGF (human, UniProt P15692-9 27-147)
# T3 construct: also called GST-VEGF humano; not shown: GST fusion partner
# T3 sequence (looked up): T1 sequence (looked up)
# B1: soluble scFv 2H1 antibody fragment (scFv, from another filing)
# scFv: QQVQLVQSGAEVKKPGESLKISCKGSGYSFTSYWIGWVRQMPGKGLEWMGIIYPGDSDTRYSPSFQGQVTISADKSISTAYLQWSSLKASDTAMYYCARLVVRDTEIWGQGTMVTVSSAPQAKSSGSGSESKVDQAVVTQEPSLTVSPGGTVTLTCASSIGAVTSGNYPNWFQQRPGQPPRALIYSTSNKHSWTPARFSGSLLGGKAALTLSGAQPEDEAEYYCLLSYSGARPVFGGGTKLTVLGAAAGSEQKLISEEDLNSHHHHHH
# Experiments:
# [1] = target: T1, isoform 121 of human VEGF-A (Peprotech); assay: ELISA; antigen coated 1 µg/ml; scFv 10 µg/mL; 9E10-peroxidase
# [2] = target: T4, isoform 165 of human VEGF-A (Peprotech) (human, UniProt P15692-4 27-191); assay: as above
# T4 construct: also called human VEGF165; VEGF 165
# mouse VEGF (Peprotech) = target: T2, mouse VEGF (Peprotech); assay: as above
# human GST-VEGF [3] = target: T3, human GST-VEGF; assay: competition ELISA on coated GST-VEGF; soluble scFv 2H1 titrated; competitor phage scFv L1
# human GST-VEGF [4] = target: T3, human GST-VEGF; assay: competition ELISA on coated GST-VEGF; soluble scFv 2H1 titrated; competitor phage scFv L3
# human GST-VEGF [5] = target: T3, human GST-VEGF; assay: competition ELISA on coated GST-VEGF; soluble scFv 2H1 titrated; competitor phage scFv 3D4
# human GST-VEGF [6] = target: T3, human GST-VEGF; assay: competition ELISA on coated GST-VEGF; soluble scFv 2H1 titrated; competitor phage scFv 3E2
# human GST-VEGF [7] = target: T3, human GST-VEGF; assay: competition ELISA on coated GST-VEGF; soluble scFv 2H1 titrated; competitor phage scFv 3E3
# human GST-VEGF [8] = target: T3, human GST-VEGF; assay: competition ELISA on coated GST-VEGF; soluble scFv 2H1 titrated; competitor phage scFv 3E5
# human GST-VEGF [9] = target: T3, human GST-VEGF; assay: competition ELISA on coated GST-VEGF; soluble scFv 2H1 titrated; competitor phage scFv 3E9
# human GST-VEGF [10] = target: T3, human GST-VEGF; assay: competition ELISA on coated GST-VEGF; soluble scFv 2H1 titrated; competitor phage scFv 3F3
# human GST-VEGF [11] = target: T3, human GST-VEGF; assay: competition ELISA on coated GST-VEGF; soluble scFv 2H1 titrated; competitor phage scFv 3H2
# human GST-VEGF [12] = target: T3, human GST-VEGF; assay: competition ELISA on coated GST-VEGF; soluble scFv 2H1 titrated; competitor phage scFv 4F2
# human GST-VEGF [13] = target: T3, human GST-VEGF; assay: competition ELISA on coated GST-VEGF; soluble scFv 2H1 titrated; competitor phage scFv 1B1
# human GST-VEGF [14] = target: T3, human GST-VEGF; assay: competition ELISA on coated GST-VEGF; soluble scFv 2H1 titrated; competitor phage scFv 1C9
# human GST-VEGF [15] = target: T3, human GST-VEGF; assay: competition ELISA on coated GST-VEGF; soluble scFv 2H1 titrated; competitor phage scFv 1G4
# human GST-VEGF [16] = target: T3, human GST-VEGF; assay: competition ELISA on coated GST-VEGF; soluble scFv 2H1 titrated; competitor phage scFv 1H2
# human GST-VEGF [17] = target: T3, human GST-VEGF; assay: competition ELISA on coated GST-VEGF; soluble scFv 2H1 titrated; competitor phage scFv 2F5
# human GST-VEGF [18] = target: T3, human GST-VEGF; assay: competition ELISA on coated GST-VEGF; soluble scFv 2H1 titrated; competitor phage scFv 3E3; remark: listed apart in the source
# human GST-VEGF [19] = target: T3, human GST-VEGF; assay: competition ELISA on coated GST-VEGF; soluble scFv 2H1 titrated; competitor phage scFv 3F3; remark: listed apart in the source
# human GST-VEGF [20] = target: T3, human GST-VEGF; assay: competition ELISA on coated GST-VEGF; soluble scFv 2H1 titrated; competitor phage scFv 3B10
# human GST-VEGF [21] = target: T3, human GST-VEGF; assay: competition ELISA on coated GST-VEGF; soluble scFv 2H1 titrated; competitor phage scFv 2A10
# human GST-VEGF [22] = target: T3, human GST-VEGF; assay: competition ELISA on coated GST-VEGF; soluble scFv 2H1 titrated; competitor phage scFv L3H5
# human GST-VEGF [23] = target: T3, human GST-VEGF; assay: competition ELISA on coated GST-VEGF; soluble scFv 2H1 titrated; competitor phage scFv L3H6
# human GST-VEGF [24] = target: T3, human GST-VEGF; assay: competition ELISA on coated GST-VEGF; soluble scFv 2H1 titrated; competitor phage scFv 2H1 original
# T4 sequence (P15692 other isoform, or with tags, fused parts or gaps limits assumed): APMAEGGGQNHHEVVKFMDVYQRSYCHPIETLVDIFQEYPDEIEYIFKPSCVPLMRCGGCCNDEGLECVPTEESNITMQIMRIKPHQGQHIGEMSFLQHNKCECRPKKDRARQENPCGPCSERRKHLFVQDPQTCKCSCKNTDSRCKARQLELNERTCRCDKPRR
binder,measurement,setting,value
B1,absorbance at 492 nm,[1],0.691
same,absorbance at 492 nm,[2],0.665
same,absorbance at 492 nm,mouse VEGF (Peprotech),0.09
same,IC50,human GST-VEGF [3],11.7 µg/mL
same,IC50,human GST-VEGF [4],358 µg/mL
same,IC50,human GST-VEGF [5],16.3 µg/mL
same,IC50,human GST-VEGF [6],15.3 µg/mL
same,IC50,human GST-VEGF [7],35.1 µg/mL
same,IC50,human GST-VEGF [8],9.06 µg/mL
same,IC50,human GST-VEGF [9],15 µg/mL
same,IC50,human GST-VEGF [10],48.9 µg/mL
same,IC50,human GST-VEGF [11],19.6 µg/mL
same,IC50,human GST-VEGF [12],4.98 µg/mL
same,IC50,human GST-VEGF [13],151 µg/mL
same,IC50,human GST-VEGF [14],38.3 µg/mL
same,IC50,human GST-VEGF [15],57.7 µg/mL
same,IC50,human GST-VEGF [16],124 µg/mL
same,IC50,human GST-VEGF [17],4.21 µg/mL
same,IC50,human GST-VEGF [18],34.6 µg/mL
same,IC50,human GST-VEGF [19],49.7 µg/mL
same,IC50,human GST-VEGF [20],7.94 µg/mL
same,IC50,human GST-VEGF [21],35.8 µg/mL
same,IC50,human GST-VEGF [22],940 µg/mL
same,IC50,human GST-VEGF [23],978 µg/mL
same,IC50,human GST-VEGF [24],5.08 µg/mL
